Values of other authors as cited in article PMC6667139.

Molecular target: TGFβ receptor I and II (Homo sapiens) (UniProt P36897)
Sequence (P36897 34-126, chain 1 of 2): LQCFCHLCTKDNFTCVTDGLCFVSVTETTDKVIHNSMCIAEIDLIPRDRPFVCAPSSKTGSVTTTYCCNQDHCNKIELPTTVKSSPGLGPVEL
Sequence (partner, as listed by the source, chain 2 of 2): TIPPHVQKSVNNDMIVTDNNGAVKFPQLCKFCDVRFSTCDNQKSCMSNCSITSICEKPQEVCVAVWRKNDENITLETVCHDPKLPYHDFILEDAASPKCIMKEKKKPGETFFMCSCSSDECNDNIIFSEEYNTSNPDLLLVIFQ

TGFβ, sequence (P01137 279-390): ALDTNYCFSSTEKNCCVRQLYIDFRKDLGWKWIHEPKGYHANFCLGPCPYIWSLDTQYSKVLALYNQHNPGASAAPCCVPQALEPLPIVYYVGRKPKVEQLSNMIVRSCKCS

For TGFβ (from UniProt P01137), the Kd is given as 0.05 nM.
